Measured values reported in paper PMC5490261, “The structural and functional characterization of human RecQ4 reveals insights into its helicase mechanism”.

What was measured:
Assay in all cases: fluorescence polarization; WT-like affinity; figure values not assignable from text layer; 20 mM HEPES pH 8.0, 10 mM NaCl, 5% glycerol, 1 mM MgCl2, 0.5 mM TCEP, 0.5 nM Cy3-ssDNA; temperature not stated
Settings in all cases: protein: recombinant; tags: Trx-His6 removed by 3C protease; label: 5' Cy3
RecQ4 427-1208 W613L = biological target: T1, RecQ4 427-1208 W613L (Homo sapiens, UniProt O94761 427-1208, W613L)
T1 sequence: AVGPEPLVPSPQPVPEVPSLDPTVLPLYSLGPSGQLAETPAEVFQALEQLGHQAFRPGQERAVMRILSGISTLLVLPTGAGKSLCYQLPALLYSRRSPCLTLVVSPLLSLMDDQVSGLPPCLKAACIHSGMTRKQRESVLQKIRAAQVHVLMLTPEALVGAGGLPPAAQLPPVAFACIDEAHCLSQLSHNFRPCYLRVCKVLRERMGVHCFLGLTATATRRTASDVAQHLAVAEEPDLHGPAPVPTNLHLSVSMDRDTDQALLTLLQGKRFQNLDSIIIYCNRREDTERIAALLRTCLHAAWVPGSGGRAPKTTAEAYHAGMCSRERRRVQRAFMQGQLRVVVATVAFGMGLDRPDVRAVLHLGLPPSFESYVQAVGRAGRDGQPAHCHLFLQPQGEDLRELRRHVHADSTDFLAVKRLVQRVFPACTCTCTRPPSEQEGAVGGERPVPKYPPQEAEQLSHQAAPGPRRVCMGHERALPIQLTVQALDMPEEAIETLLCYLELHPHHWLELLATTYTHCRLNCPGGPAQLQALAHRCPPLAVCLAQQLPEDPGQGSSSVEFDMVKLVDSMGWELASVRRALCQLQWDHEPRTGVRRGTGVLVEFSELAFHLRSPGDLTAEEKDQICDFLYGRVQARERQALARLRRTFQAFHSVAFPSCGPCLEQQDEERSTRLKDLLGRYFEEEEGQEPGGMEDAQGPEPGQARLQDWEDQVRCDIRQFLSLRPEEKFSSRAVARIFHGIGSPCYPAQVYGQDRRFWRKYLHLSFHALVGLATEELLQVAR

RecQ4 427-1208 H615L = biological target: T2, RecQ4 427-1208 H615L (Homo sapiens, UniProt O94761 427-1208, H615L)
T2 sequence: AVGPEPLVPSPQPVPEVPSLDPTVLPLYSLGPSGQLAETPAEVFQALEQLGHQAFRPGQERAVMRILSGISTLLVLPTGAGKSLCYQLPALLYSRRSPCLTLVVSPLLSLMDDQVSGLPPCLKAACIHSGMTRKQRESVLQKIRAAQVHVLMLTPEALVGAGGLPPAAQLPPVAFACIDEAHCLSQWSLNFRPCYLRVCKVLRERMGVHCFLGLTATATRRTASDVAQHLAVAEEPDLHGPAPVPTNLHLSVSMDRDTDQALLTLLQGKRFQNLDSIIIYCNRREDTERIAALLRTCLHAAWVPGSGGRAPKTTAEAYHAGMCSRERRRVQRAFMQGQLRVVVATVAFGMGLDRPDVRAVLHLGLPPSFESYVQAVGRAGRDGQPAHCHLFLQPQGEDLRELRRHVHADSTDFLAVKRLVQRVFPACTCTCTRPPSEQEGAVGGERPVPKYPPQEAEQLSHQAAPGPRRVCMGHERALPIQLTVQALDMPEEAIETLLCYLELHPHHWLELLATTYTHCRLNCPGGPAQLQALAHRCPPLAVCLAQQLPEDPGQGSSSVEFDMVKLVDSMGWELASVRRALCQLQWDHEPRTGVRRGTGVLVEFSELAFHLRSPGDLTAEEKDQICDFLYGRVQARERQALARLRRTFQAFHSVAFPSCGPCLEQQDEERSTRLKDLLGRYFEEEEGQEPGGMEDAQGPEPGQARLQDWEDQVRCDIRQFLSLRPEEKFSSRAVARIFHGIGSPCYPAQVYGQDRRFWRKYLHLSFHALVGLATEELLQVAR

RecQ4 427-1208 R618L = biological target: T3, RecQ4 427-1208 R618L (Homo sapiens, UniProt O94761 427-1208, R618L)
T3 sequence: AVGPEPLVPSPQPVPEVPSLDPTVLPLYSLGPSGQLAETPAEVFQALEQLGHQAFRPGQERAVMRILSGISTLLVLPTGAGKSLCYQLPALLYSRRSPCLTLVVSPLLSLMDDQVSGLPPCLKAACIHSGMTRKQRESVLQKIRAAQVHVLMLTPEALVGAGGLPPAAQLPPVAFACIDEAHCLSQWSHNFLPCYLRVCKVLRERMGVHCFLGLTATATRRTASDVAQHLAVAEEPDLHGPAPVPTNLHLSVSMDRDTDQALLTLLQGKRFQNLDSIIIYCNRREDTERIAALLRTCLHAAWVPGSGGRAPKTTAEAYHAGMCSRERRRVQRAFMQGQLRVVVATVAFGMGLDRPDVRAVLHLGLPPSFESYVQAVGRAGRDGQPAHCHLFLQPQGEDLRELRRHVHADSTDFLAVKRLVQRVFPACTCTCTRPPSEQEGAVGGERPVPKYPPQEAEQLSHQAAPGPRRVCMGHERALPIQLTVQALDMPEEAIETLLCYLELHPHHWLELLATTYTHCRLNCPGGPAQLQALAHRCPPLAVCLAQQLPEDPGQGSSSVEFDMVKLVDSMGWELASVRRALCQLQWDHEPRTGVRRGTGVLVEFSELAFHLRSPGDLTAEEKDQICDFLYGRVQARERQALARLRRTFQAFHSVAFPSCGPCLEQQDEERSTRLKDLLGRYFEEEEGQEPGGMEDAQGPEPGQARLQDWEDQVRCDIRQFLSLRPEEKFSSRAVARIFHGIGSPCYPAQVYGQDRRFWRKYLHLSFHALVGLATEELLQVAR

Measured: binding result

CCATTCCACCCTCTATTTTTTTTTTTTTTT (ssDNA) [T3-Cy3]
binds: all assays above
